Experimental data reported in patent US20180057604A1 (Genentech, published 2018).
Substitutions are numbered along the chain they refer to. Names and notes keep the numbering of the source.

T1: cyno TfR extracellular domain (analogous construct to human TfR ecd) (cynomolgus monkey, UniProt Q5RDH6 87-760 (Pongo abelii entry))
T1 construct: also called cynoTfR ecd
T1 chain: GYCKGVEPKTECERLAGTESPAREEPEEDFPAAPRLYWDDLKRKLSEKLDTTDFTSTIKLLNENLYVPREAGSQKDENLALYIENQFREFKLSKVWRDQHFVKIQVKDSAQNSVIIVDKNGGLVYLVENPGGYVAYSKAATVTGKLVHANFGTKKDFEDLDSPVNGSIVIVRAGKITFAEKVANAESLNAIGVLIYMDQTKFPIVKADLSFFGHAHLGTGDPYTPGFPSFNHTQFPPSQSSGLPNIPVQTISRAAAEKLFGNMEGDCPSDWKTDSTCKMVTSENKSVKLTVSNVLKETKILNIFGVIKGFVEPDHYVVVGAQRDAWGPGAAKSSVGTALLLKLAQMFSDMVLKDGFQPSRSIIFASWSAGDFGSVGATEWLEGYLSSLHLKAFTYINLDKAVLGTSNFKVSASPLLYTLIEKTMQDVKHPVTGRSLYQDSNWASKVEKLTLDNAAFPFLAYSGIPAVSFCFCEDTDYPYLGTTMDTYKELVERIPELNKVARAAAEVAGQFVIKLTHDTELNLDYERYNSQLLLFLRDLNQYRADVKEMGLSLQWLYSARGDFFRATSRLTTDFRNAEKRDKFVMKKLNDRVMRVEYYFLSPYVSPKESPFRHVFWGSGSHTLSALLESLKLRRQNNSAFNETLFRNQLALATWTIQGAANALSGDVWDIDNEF

B1: hu15G11.v5 IgG Ala variant D27A (HVR-L1) (antibody, V domains shown)
VH: EVQLVQSGAEVKKPGASVKVSCKASGYTFTSYWMHWVRQAPGQRLEWIGEINPTNGRTNYIEKFKSRATLTVDKSASTAYMELSSLRSEDTAVYYCARGTRAYHYWGQGTMVTVSS
VL: DIQMTQSPSSLSASVGDRVTITCRASANLYSNLAWYQQKPGKSPKLLVYDATNLADGVPSRFSGSGSGTDYTLTISSLQPEDFATYYCQHFWGTPLTFGQGTKVEIK
notes: IgG in cell culture supernatant
B2: hu15G11.v5 IgG Ala variant T53A (HVR-H2) (antibody, V domains shown)
VH: B1 VH with T54A
VL: B1 VL with A27D
notes: IgG in cell culture supernatant; also called 15G11.T53A; 15G11.53A
B3: hu15G11.v5 IgG Ala variant L33A (HVR-L1) (antibody, V domains shown)
VH: B1 VH
VL: B1 VL with A27D, L33A
notes: as for B1
B4: hu15G11.v5 IgG Ala variant Y32A (HVR-H1) (antibody, name in Kabat numbering, V domains shown)
VH: B1 VH with Y32A
VL: B1 VL with A27D
notes: as for B1
B5: hu15G11.v5 IgG Ala variant I51A (HVR-H2) (antibody, name in Kabat numbering, V domains shown)
VH: B1 VH with I51A
VL: B1 VL with A27D
notes: as for B1
B6: hu15G11.v5 IgG Ala variant R56A (HVR-H2) (antibody, name in Kabat numbering, V domains shown)
VH: B1 VH with R57A
VL: B1 VL with A27D
notes: IgG in cell culture supernatant; Kabat numbers after 52a lie one below the linear count
B7: hu15G11.v5 IgG Ala variant D56A (HVR-L2) (antibody, V domains shown)
VH: B1 VH
VL: B1 VL with A27D, D56A
notes: as for B1
B8: hu15G11.v5 IgG Ala variant M34A (HVR-H1) (antibody, name in Kabat numbering, V domains shown)
VH: B1 VH with M34A
VL: B1 VL with A27D
notes: as for B1
B9: hu15G11.v5 IgG Ala variant P52aA (HVR-H2) (antibody, name in Kabat numbering, V domains shown)
VH: B1 VH with P53A
VL: B1 VL with A27D
notes: as for B1
B10: hu15G11.v5 IgG Ala variant T30A (HVR-H1) (antibody, name in Kabat numbering, V domains shown)
VH: B1 VH with T30A
VL: B1 VL with A27D
notes: as for B1
B11: hu15G11.v5 IgG Ala variant G49A (HVR-H2) (antibody, name in Kabat numbering, V domains shown)
VH: B1 VH with G49A
VL: B1 VL with A27D
notes: as for B1
B12: hu15G11.v5 IgG Ala variant N28A (HVR-L1) (antibody, V domains shown)
VH: B1 VH
VL: B1 VL with A27D, N28A
notes: as for B1
B13: hu15G11.v5 IgG Ala variant N52A (HVR-H2) (antibody, V domains shown)
VH: B1 VH with N52A
VL: B1 VL with A27D
notes: IgG in cell culture supernatant; also called 15G11.N52A; 15G11.52A
B14: hu15G11.v5 IgG Ala variant E61A (HVR-H2) (antibody, name in Kabat numbering, V domains shown)
VH: B1 VH with E62A
VL: B1 VL with A27D
notes: as for B6
B15: hu15G11.v5 IgG Ala variant R24A (HVR-L1) (antibody, V domains shown)
VH: B1 VH
VL: B1 VL with R24A, A27D
notes: as for B1
B16: hu15G11.v5 IgG Ala variant I60A (HVR-H2) (antibody, name in Kabat numbering, V domains shown)
VH: B1 VH with I61A
VL: B1 VL with A27D
notes: as for B6
B17: hu15G11.v5 IgG Ala variant K64A (HVR-H2) (antibody, name in Kabat numbering, V domains shown)
VH: B1 VH with K65A
VL: B1 VL with A27D
notes: as for B6
B18: hu15G11.v5 IgG Ala variant F29A (HVR-H1) (antibody, name in Kabat numbering, V domains shown)
VH: B1 VH with F29A
VL: B1 VL with A27D
notes: as for B1
B19: hu15G11.v5 IgG Ala variant F63A (HVR-H2) (antibody, name in Kabat numbering, V domains shown)
VH: B1 VH with F64A
VL: B1 VL with A27D
notes: as for B6
B20: hu15G11.v5 IgG Ala variant L54A (HVR-L2) (antibody, V domains shown)
VH: B1 VH
VL: B1 VL with A27D, L54A
notes: as for B1
B21: hu15G11.v5 IgG Ala variant K62A (HVR-H2) (antibody, name in Kabat numbering, V domains shown)
VH: B1 VH with K63A
VL: B1 VL with A27D
notes: as for B6
B22: hu15G11.v5 IgG Ala variant N58A (HVR-H2) (antibody, name in Kabat numbering, V domains shown)
VH: B1 VH with N59A
VL: B1 VL with A27D
notes: as for B6
B23: hu15G11.v5 IgG Ala variant N53A (HVR-L2) (antibody, V domains shown)
VH: B1 VH
VL: B1 VL with A27D, N53A
notes: as for B1
B24: hu15G11.v5 IgG Ala variant Y30A (HVR-L1) (antibody, V domains shown)
VH: B1 VH
VL: B1 VL with A27D, Y30A
notes: as for B1
B25: hu15G11.v5 IgG Ala variant S65A (HVR-H2) (antibody, name in Kabat numbering, V domains shown)
VH: B1 VH with S66A
VL: B1 VL with A27D
notes: as for B6
B26: hu15G11.v5 IgG Ala variant S26A (HVR-L1) (antibody, V domains shown)
VH: B1 VH
VL: B1 VL with S26A, A27D
notes: as for B1
B27: hu15G11.v5 IgG Ala variant Y59A (HVR-H2) (antibody, name in Kabat numbering, V domains shown)
VH: B1 VH with Y60A
VL: B1 VL with A27D
notes: as for B6
B28: hu15G11.v5 IgG Ala variant S31A (HVR-L1) (antibody, V domains shown)
VH: B1 VH
VL: B1 VL with A27D, S31A
notes: IgG in cell culture supernatant; also called S31A (light chain)
B29: hu15G11.v5 IgG Ala variant N32A (HVR-L1) (antibody, V domains shown)
VH: B1 VH
VL: B1 VL with A27D, N32A
notes: as for B1
B30: hu15G11.v5 IgG Ala variant T52A (HVR-L2) (antibody, V domains shown)
VH: B1 VH
VL: B1 VL with A27D, T52A
notes: as for B1
B31: hu15G11.v5 IgG Ala variant T28A (HVR-H1) (antibody, name in Kabat numbering, V domains shown)
VH: B1 VH with T28A
VL: B1 VL with A27D
notes: as for B1
B32: hu15G11.v5 IgG Ala variant G26A (HVR-H1) (antibody, name in Kabat numbering, V domains shown)
VH: B1 VH with G26A
VL: B1 VL with A27D
notes: as for B1
B33: hu15G11.v5 IgG Ala variant D50A (HVR-L2) (antibody, V domains shown)
VH: B1 VH
VL: B1 VL with A27D, D50A
notes: as for B1
B34: hu15G11.v5 IgG Ala variant L29A (HVR-L1) (antibody, V domains shown)
VH: B1 VH
VL: B1 VL with A27D, L29A
notes: as for B1
B35: hu15G11.v5 IgG Ala variant S31A (HVR-H1) (antibody, name in Kabat numbering, V domains shown)
VH: B1 VH with S31A
VL: B1 VL with A27D
notes: IgG in cell culture supernatant; also called S31A (heavy chain)
B36: hu15G11.v5 IgG Ala variant E50A (HVR-H2) (antibody, name in Kabat numbering, V domains shown)
VH: B1 VH with E50A
VL: B1 VL with A27D
notes: as for B1

target: T2, human TfR extracellular domain with N-terminal His tag (human, UniProt P02786 89-760); test: ELISA, TfR-coated plate, IgG in culture supernatant;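 also: human or cynomolgus TfR coated at 2 µg/mL, supernatant IgG titrated in 1:5 steps for 1 h, bound antibody read with HRP anti-human Fcγ and TMB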
T2 construct: Biotinylated in some assays; also called huTfR; HuTfR
Experimental: (§1) The Hu/Cy binding ELISA was performed in maxisorp plates coated with 2 μg/ml of purified human or cyno TfR in PBS at 4° C. overnight. Plates were washed with PBS/0.05% Tween 20 and blocked using Superblock blocking buffer in PBS (Thermo Scientific, Hudson, N.H.). Cell culture supernatants containing the expressed Ala scan variant IgGs were serially diluted 1:5 and added to the wells for 1 h. Plates were washed with PBS/0.05% Tween 20 and 1:1000 diluted HRP-Goat-anti human Fcγ (Jackson ImmunoResearch) was added the plate and incubated for 1 hour at room temperature. Plates were washed with PBS/0.05% Tween 20 and detected using TMB substrate (BioFX Laboratories, Owings Mills).

EC50 [ng/mL] | Binder
0.2 | B1
0.3 | B2
0.05 | B3
0.4 | B4
0.2 | B5
55.1 | B6
0.3 | B7
0.4 | B8
3.9 | B9
0.4 | B10
0.3 | B11
0.2 | B12
0.3 | B13
0.2 | B14
0.1 | B15
0.3 | B16
0.3 | B17
1.5 | B18

EC50 [ng/mL] | Binder
0.4 | B19
0.4 | B20
0.3 | B21
6.3 | B22
0.3 | B23
0.3 | B24
0.2 | B25
0.2 | B26
0.3 | B27
0.3 | B28
1.6 | B29
0.2 | B30
0.4 | B31
1.1 | B32
0.2 | B33
0.3 | B34
0.05 | B35

Target: T1, cyno TfR extracellular domain …
Test: as above
Experimental: as §1

EC50 [ng/mL] | Binder
0.8 | B1
0.7 | B2
0.1 | B3
1.4 | B4
0.6 | B5
5410 | B6
0.5 | B7
1.1 | B8
8.1 | B9
0.9 | B10
410 | B36
1.1 | B11
0.8 | B12
0.9 | B13
0.6 | B14
0.4 | B15
0.7 | B16
0.6 | B17

EC50 [ng/mL] | Binder
0.6 | B19
0.5 | B20
0.7 | B21
80.4 | B22
0.6 | B23
1 | B24
0.7 | B25
0.6 | B26
0.7 | B27
0.7 | B28
4 | B29
0.3 | B30
0.8 | B31
6.1 | B32
0.5 | B33
0.9 | B34
0.1 | B35
